Experimental data published in US20110064742 (published 2011).
Bridge positions count the residues as written; N and C are the ends. Square brackets hold non-standard residues; d marks the D form. Phe(4-Cl) = N[C@@H](Cc1ccc(Cl)cc1)C(=O)O; dPhe(4-Cl) = N[C@H](Cc1ccc(Cl)cc1)C(=O)O; Phe(4-F) = N[C@@H](Cc1ccc(F)cc1)C(=O)O; 2Nal = N[C@@H](Cc1ccc2ccccc2c1)C(=O)O; 3Pal = N[C@@H](Cc1cccnc1)C(=O)O

B1: PRL-2915 (peptide)
chain: H-[Phe(4-Cl)]C[3Pal][dW]KIC[2Nal]-NH2
modifications: disulfide 2-7
SMILES: CC[C@H](C)[C@@H]1NC(=O)[C@H](CCCCN)NC(=O)[C@@H](Cc2c[nH]c3ccccc23)NC(=O)[C@H](Cc2cccnc2)NC(=O)[C@@H](NC(=O)[C@@H](N)Cc2ccc(Cl)cc2)CSSC[C@@H](C(=O)N[C@@H](Cc2ccc3ccccc3c2)C(N)=O)NC1=O
B2: BIM 23,627 (peptide)
chain: H-[dPhe(4-Cl)][dC][3Pal]WKVC[2Nal]-NH2
modifications: disulfide 2-7
SMILES: CC(C)[C@@H]1NC(=O)[C@H](CCCCN)NC(=O)[C@H](Cc2c[nH]c3ccccc23)NC(=O)[C@H](Cc2cccnc2)NC(=O)[C@H](NC(=O)[C@H](N)Cc2ccc(Cl)cc2)CSSC[C@@H](C(=O)N[C@@H](Cc2ccc3ccccc3c2)C(N)=O)NC1=O
B3: BIM 23,458 (peptide)
chain: H-[Phe(4-F)][dC][3Pal][dW]KIC[2Nal]-NH2
modifications: disulfide 2-7
SMILES: CC[C@H](C)[C@@H]1NC(=O)[C@H](CCCCN)NC(=O)[C@@H](Cc2c[nH]c3ccccc23)NC(=O)[C@H](Cc2cccnc2)NC(=O)[C@H](NC(=O)[C@@H](N)Cc2ccc(F)cc2)CSSC[C@@H](C(=O)N[C@@H](Cc2ccc3ccccc3c2)C(N)=O)NC1=O

What follows are binders tested against SSTR-2 (human).
Sequence of SSTR-2 (human) (chain, as listed by the source): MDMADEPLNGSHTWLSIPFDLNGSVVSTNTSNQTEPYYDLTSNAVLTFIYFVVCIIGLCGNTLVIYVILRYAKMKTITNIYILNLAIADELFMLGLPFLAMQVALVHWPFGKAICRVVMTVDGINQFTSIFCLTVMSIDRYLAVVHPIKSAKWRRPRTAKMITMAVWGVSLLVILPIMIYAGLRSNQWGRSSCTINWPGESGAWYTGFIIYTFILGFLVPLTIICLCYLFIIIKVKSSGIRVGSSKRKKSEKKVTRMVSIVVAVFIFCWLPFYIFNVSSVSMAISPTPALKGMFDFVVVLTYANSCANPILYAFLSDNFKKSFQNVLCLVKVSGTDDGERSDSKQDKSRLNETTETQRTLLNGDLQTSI

Point of comparison: XCYWKTCX (cyclic disulfide; H-Cpa-cyclo[DCys-Tyr-DTrp-Lys-Thr-Cys]-Nal-NH2) [PRL-2970], Ki 25.1 nM. Against it:
- B1 — 2-fold lower, 12.6 nM
- Ac-HFIRWF-NH2 [AC-178,335] — 6.3-fold higher, 158 nM

Target: SSTR-2 (human)
Remark: another data set of the same source

Point of comparison: B2, IC50 6.4 nM. Against it:
- H-[Phe(4-Cl)]C[3Pal]WKVC[2Nal]-NH2 (cysteine pairing not given here) [BIM 23,454] — 4.9-fold higher, 31.6 nM
- B3 — 4.3-fold higher, 27.4 nM
